Assay results published in publication PMC4858740 (2016).

T1: CD45RO ECD (human)
T1 chain: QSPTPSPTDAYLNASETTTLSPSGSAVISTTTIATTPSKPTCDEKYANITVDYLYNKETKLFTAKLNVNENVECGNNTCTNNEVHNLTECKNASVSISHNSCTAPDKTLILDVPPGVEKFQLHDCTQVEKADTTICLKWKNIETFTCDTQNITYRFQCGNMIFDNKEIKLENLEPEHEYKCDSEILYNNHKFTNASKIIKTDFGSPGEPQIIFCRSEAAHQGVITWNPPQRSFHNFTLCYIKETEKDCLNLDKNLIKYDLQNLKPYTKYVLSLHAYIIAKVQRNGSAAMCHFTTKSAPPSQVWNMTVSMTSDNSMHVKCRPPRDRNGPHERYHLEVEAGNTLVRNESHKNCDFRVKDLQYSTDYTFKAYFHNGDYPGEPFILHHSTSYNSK

T2: SLAMF6 ECD (human, UniProt Q96DU3 22-226)
T2 chain: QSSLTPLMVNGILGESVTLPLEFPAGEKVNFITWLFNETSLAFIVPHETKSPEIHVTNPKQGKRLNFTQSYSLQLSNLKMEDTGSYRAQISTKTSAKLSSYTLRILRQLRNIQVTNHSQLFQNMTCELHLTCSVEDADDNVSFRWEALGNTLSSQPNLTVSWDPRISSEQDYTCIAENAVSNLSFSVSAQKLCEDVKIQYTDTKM

T3: SLAMF4 ECD (human, UniProt Q9BZW8 22-229)
T3 chain: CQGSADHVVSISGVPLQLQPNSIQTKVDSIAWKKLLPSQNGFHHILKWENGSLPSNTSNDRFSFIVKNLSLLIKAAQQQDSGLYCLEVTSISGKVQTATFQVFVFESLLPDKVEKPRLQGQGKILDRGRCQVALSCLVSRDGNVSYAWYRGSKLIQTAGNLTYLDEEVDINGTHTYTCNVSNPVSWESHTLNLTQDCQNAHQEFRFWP


Columns and labels:
Assay in all cases: SPR
CD45RO ECD = target: T1, CD45RO ECD
SLAMF6 ECD = target: T2, SLAMF6 ECD
SLAMF4 ECD = target: T3, SLAMF4 ECD

| Binder | Kd (CD45RO ECD) [nM] | also measured |
| --- | --- | --- |
| HAdV-D24 E3/49K (Fc fusion) GIHIINATWWDNITLVGPSDTPVTWYDGKGLQFCDGSTVKNPQIRHTCNDQNLTLIHVNKTHERTYMGYRHDSKGKVDYKVTVIPPPPATVKPQPDPENVFVYMGNNVTLVGPPGIPVSWYYHNGTQFCDGDKIIHPEFNHTCDKQNLTLLFVNFTHDGGYLGFNYKGTQRIQYEVIVLDRFPNSGQMKIEEQSEETEQKHTEHNKAGQKQGIDTNQKKANNRQKPSQRPSRRRPTNTPETKQLTVSIGSNLTLVGPDGKVTWYDGDLKRPCEEQNYRLPHQCSAQNLTLINVTKSHEGTYYGTNDKDESKRYRVKVNTTNSQAVKINPYTRPTTPDQKHRFELQIENNANDEESKIPSTT | 0.08 |  |
| HAdV-B55 CR1β (Fc fusion) QTVVSIPLGHNYTLIGPPITSEVIWTKLGSVDYFDIICNKTKPIIVTCNIQNLTLINVSKVYSGYYYGYDRYSSQYRNYLVRVTQSKTTKMPNMAEIRSDDNSLETFTSSTTPDEKNIPDS |  | Kd (SLAMF6 ECD): 13 nM |
| HAdV-D37 E3/49K (Fc fusion) GFHTINATWWANITLVGPPDTPVTWYDTQGLWFCNGSRVKNPQIRHTCNDQNLTLIHVNKTYERTYMGYNRQGTKKEDYKVVVIPPPPATVKPQPEPEYVFVYMGENKTLEGPPGTPVTWFNQDGKKFCEGEKVLHPEFNHTCDKQNLILLFVNFTHDGAYLGYNHQGTQRTHYEVTVLDLFPDSGQMKIENHSEETEQKNDEHHNWQKQGGQKQGGQKTNQTKVNDRRKTAQKRPSKLKPATIEAMLVTVTAGSNLTLVGPKAEGKVTWFDGDLKRPCEPNYRLRHECNNQNLTLINVTKDYEGTYYGTNDKDEGKRYRVKVNTTNSQSVKIQPYTRQTTPDQEHKFELQFETNGNYDSKIPSTT | 0.11 |  |
| HAdV-D43 E3/49K (Fc fusion) QIEHEKQSVQWGKNITLVGPNDKPVEWHGPRDQLCKGKQILHPEFNHTCNEQNLTLLFVNNTFQGIYYGIRNDGRGMKQIQLTVVAPPASTRKPLSKPKQVNVQYGHNVTLEGPPGIPIDWLGPTNQLCKGKEILHPEINHTCNVQNLTLLFVNYTHRGAYFGFNKDGTDRHHYEVTILDGFTNAGQTKEESVSDKSKGKTSSKEKKTQKNNSQRNDDVKELDFPSGSNQTLVGPPGSKVDWYTTKNGDFTKLCDGLNGPKNLCNYQNLTLRNVSRQDEGTYFGSNEQSKHYRVTVYTKPRNQTKRIQPYTTKGTTKSTLGNHSFELQLADDQSNQQDQQIPSTT | 0.38 |  |
| HAdV-D58 E3/49K (Fc fusion) SQAGFHTINATWWANITLVGPSDTPVTWYDKQGMQFCDGNTVKNPQIRHECNEQNLTLIHVNKTHERTYMGYNRQSTHKEDYKVIVIPPPPATVKPQSGPEYVYVNMGENKTLVGPPGIPVTWYDGEGNKFCDGEKVEHAEFNHTCDVQNLTLLFINLTHDGAYLGYNHQGTKRTWYEVVVTDGFPKSGEMKIEDQSRQTEQKQTGQKQNEHKQGGQKQEGQKETSQKKANDKQKATHRRPSKLKPHTPEAKLITVSSGSNLTLLGPDGKVTWYDDDLKRPCEPGYKLNCKCDNQNLTLINVTKLYEGVYYGTNDGGNGKRYRVKVNTTNSQNVKIQPYTRPTTPDQKHRFELQIDYNQDNDKIPSTT | 0.38 |  |
| HAdV-D28 E3/49K (Fc fusion) QAVHVNLEICYGCNGTLIGPPKTPVEWYDGRGHKLCAGTDTFRKELNHTCNLQNMTLTFVNLTHKGTYYGFGSDNKNSRVYQVTIKPPVLTTRRPLLKPEDVVITKGNNKTLVGPPDTPVDWYDGSGHKLCKGKEVHYPELNHTCNEQNLTLIFVNATFKGTYYGFRKDGTDKKEYRVTIDDLYAKQLKQEKDEKPRSGHDKQKSKSQERQNPKTEERHEHRDVVKEVSFRTGTNQTLVGPPGSNVDWLKIGNGGTFSELCKGDDKHYSCNSQNLTIINVTRSDEGSYYGSNDDSAHYRVSVYDPVQKKRVMKIQPHTTKTTTEGTTKSSTNESDENFALQQGNNGENNQSDETNIPS | 0.33 |  |
| HAdV-D19a E3/49K (Fc fusion) GFHTINATWWANITLVGPPDTPVTWYDTQGLWFCNGSRVKNPQIRHTCNDQNLTLIHVNKTYERTYMGYNRQGTKKEDYKVVVIPPPPATVKPQPEPEYVFVYMGENKTLEGPPGTPVTWFNQDGKKFCEGEKVLHPEFNHTCDKQNLILLFVNFTHDGAYLGYNHQGTQRTHYEVTVLDLFPDSGQMKIENHSEETEQKNDEHHNWQKQGGQKQGGQKTNQTKVNDRRKTAQKRPSKLKPATIEAMLVTVTAGSNLTLVGPKAEGKVTWFDGDLKRPCEPNYRLRHECNNQNLTLINVTKDYEGTYYGTNDKDEGKRYRVKVNTTNSQSVKIQPYTRQTTPDQEHKFELQFETNGNYDSKIPSTT | 0.06 |  |
| HAdV-D39 E3/49K (Fc fusion) KIDNEDVIGHWGKNITLVGPPEKPIEWHGPRVQLCDGSKILHPEFNHTCNEQNLTLIFLNNSFNGKYYGIRKDGFGMKQYTLKVIAPKASTRRPLSPPQQIDVRMGQNVTLVGPVDTPVNWHGPKHELCRGSQVIHPEVNHTCNEQNLTLLFVNYTFWGAYLGFNRYGTDRVHYEVTIIDGFKNAGQQKDETGQHNPSNKDRPNPKVKNPQRTKNTHKTNTQNKKDIEKDFRKGTNQTLVGPPGSKVDWYEGKNGDLVKLCDGKSGLKVSCNDQNITLINVNETYSGTYYGSNDEDHRQYKVTVYTIPRNETVKIQPHTTKGTTGGSTVNEQFALQQDNDRTNQNDEQIPSTT | 0.39 |  |
| HAdV-D47 E3/49K (Fc fusion) EAETVIVDVKSGTNHTLEGPRKTPVQWYGGADFIMYCNGSKIHHKELNHTCSIQNITLTFINRTHHGTYYGFASDNQNSKVYHVRVDLEPPRPRATLAPPQDITIKYGSNRTLQGPNVTPVSWYDGEGNRFCDGDEIDHPELNHTCNAQNLTLLFVNETHERTYYGVSGDWKQRNEYDVTVIKTQNHKNAMQQKVEQKVEQKPSKRPKQKTLQTTIQVTIPIGSNYTLVGPSPPVSWHTTKNGLTELCNGNPILRHTCDGQNITLINVNATFEADYYGSNNNSESKHYRVKVFKQRKDQALLFRPLTTKGTTGGSTVNEQFALQQGNDKTNQNDEQIPSTT | 0.01 |  |
| HAdV-D51 E3/49K (Fc fusion) LLESKVVKIPYGSTYVLVGPRDPPVQWFGGGDFTMFCNGSKTHLQNIRHTCNEQNLTLLSVGYGHRGDYYGFRHDNTGRKHYKVIIEAPPPVTRKPLSEIKYVNVTMGQNLTLSGPPGTPVTWHGEGHKLCEGKNVFYRELNHTCTEKDLILLFVNRTHNGPYIGYNKEGTDREHYEVSVLDLMPIAGQGLDSKNKEQKIPPKRKSKDKVQEVNFPTGTDQTLIGPPGQKIDWHVSSNDGQFKKLCETKDGKHSCHGRNITIFNISRADEGSYYGSSHDGSSHYKVTVYDKSSFGKAKIKIDPYTTKGTTTENYEFELQQGNDESDDQKQIPSTT | 0.06 |  |
| HAdV-A18 CR1β (Fc fusion) QTAERPLKVVAEAGHNVTLPHLLPGFNKTGHVTWLIEIPDYGSAPSNKFVFSGQKLCEFASKNLTWSFPQLIFKCDNYDITLFWLKIENSAIYNVKNTIEATESNIYYQLTVIQINPPNCIITSKYLTEDYCHITINCTNSRYPNKVIFNNVTRSYYGYAKGSSTLPNYFTTSFNVSGITKTFKHNYPFSELCTYPSSENFYNSKETVST |  | Kd (SLAMF4 ECD): 62 nM |
| HAdV-D9 E3/49K (Fc fusion) GIINLNVSWGMNLTLVGPSDLPVTWYDGKGMQFCDGNTIKNPQIKHSCNQQNLTLLNADKSHERTYLGYRHDSKGKVDYKVTVIPPPPATRKPLSEPHYVTVTMGDNITLVGPSDLPVTWYDGEGNKFCDGEKVEHAEFNHTCNIQNLTLLFVNLTHNGAYIGYNKDGSDRELYEVSVKTLFQNGAGQSKVEQGNKGKPNTAQSGGKKTKTEHRNQSPKRKSTNNLQPTQLYVRPFTNVSLTGPPNGKVTWYDGELNDPCEQKYKLRTFCNQQNLTLINVSSTYDGIYYGTDEKDKANRYRIKVNTTNHKTVKIKPHTREPPAVQEKQFELQDAETDENESKIPSAT | 0.08 |  |
| HAdV-F41 CR1β (Fc fusion) AVPEKTLNNLVRVYALVGTNLSLDSMKTPQIDELTSLSWIKQEDNPNKNLQSFFFIGQKLCEVTKDKITVFNYYPLEFSCANVTLYLYNLKTDDSGLYNGKAHTKELEHNTYVRLYVIDIPPPKCDITSRYLGIQATGEDYCLIEINCTNSKYPAVVKFNGRQSNFYHYVSENGNKELPNFYETHITVNGTHKSFHFNYPFNDLCQTTSALQYNDNVQ |  | Kd (SLAMF4 ECD): 44 nM |
